Measured values as given in article PMC3351461.

Legend:
[1] = target: Wnt3a (human (endogenous in H322 and H460)) (UniProt P56704)
[2] = target: Wnt3a (human (endogenous in H322 and H460)) (UniProt P56704); remark: listed apart in the source

Chain of UniProt P56704 (P56704 19-352): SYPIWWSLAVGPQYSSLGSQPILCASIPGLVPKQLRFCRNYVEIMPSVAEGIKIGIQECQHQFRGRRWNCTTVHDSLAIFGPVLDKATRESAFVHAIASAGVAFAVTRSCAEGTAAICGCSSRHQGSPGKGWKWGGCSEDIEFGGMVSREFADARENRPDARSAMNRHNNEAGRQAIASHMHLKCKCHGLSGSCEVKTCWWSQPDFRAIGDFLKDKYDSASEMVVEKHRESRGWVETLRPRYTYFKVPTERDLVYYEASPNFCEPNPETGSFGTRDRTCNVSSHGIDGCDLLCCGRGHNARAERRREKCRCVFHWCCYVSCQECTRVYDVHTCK

TOPflash luciferase activity in H322 cells with recombinant Wnt3a (100 ng/ml), lower in dE1-k35/sLRP6E1E2-transduced than in dE1-k35/LacZ-transduced cells [1]: 52%
TOPflash luciferase activity in H322 cells without added Wnt3a, reduction by dE1-k35/sLRP6E1E2 compared with dE1-k35/LacZ [1]: 12%
TOPflash luciferase activity in H460 cells with recombinant Wnt3a (100 ng/ml), lower in dE1-k35/sLRP6E1E2-transduced than in dE1-k35/LacZ-transduced cells [1]: 48%
TOPflash luciferase activity in H460 cells without added Wnt3a, reduction by dE1-k35/sLRP6E1E2 compared with dE1-k35/LacZ [1]: 48%
nuclear beta-catenin (immunofluorescence, quantified) in H322 cells with Wnt3a, decrease in dE1-k35/sLRP6E1E2-transduced cells compared with dE1-k35/LacZ [2]: 98.1%
Substance: soluble LRP6 receptor (sLRP6E1E2) (domain or fragment)
